Target: Purified 6x His-tagged PCNA, P12004
Sequence (P12004 whole entry): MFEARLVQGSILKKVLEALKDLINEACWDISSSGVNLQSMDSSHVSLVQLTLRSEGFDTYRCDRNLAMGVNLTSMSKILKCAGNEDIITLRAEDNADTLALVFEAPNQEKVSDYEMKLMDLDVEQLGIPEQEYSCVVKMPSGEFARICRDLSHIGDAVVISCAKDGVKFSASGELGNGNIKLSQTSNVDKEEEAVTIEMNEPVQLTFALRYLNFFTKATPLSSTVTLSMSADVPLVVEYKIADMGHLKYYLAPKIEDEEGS

B1: Purified recombinant 6x His-tagged Arm1 (protein)
chain: MAVVPASLSGQDVGSFAYLTIKDRIPQILTKVIDTLHRHKSEFFEKHGEEGVEAEKKAISLLSKLRNELQTDKPFIPLVEKFVDTDIWNQYLEYQQSLLNESDGKSRWFYSPWLLVECYMYRRIHEAIIQSPPIDYFDVFKESKEQNFYGSQESIIALCTHLQQLIRTIEDLDENQLKDEFFKLLQISLWGNKCDLSLSGGESSSQNTNVLNSLEDLKPFILLNDMEHLWSLLSNCKKTREKASATRVYIVLDNSGFELVTDLILADFLLSSELATEVHFYGKTIPWFVSDTTIHDFNWLIEQVKHSNHKWMSKCGADWEEYIKMGKWVYHNHIFWTLPHEYCAMPQVAPDLYAELQKAHLILFKGDLNYRKLTGDRKWEFSVPFHQALNGFHPAPLCTIRTLKAEIQVGLQPGQGEQLLASEPSWWTTGKYGIFQYDGPL
In the case of B1, the “PCNA-dependent carboxyl methyltransferase activity (vapour diffusion assay)” value is reported as “Arm possesses a PCNA-dependent carboxyl methyltransferase activity”.

Source: patent US20150065444
